Several values for one entry are separate records, joined by “and”; a condition that tells them apart may be missing. Identical values can stand only once.
Columns and labels:
IL-1RAP [1] = assay: Immunostaining of FDA standard frozen normal tissue array; format: binding, human; parameters: key to Staining intensity (0 to 3+): negative (0); weak staining (1+); moderate staining (2+); strong staining (3+); conditions: for Staining intensity (0 to 3+): replicates
Text: FIG. 13: (A) Tissue microarray. Representative #A3C3 staining of an US Food and Drug Administration standard frozen tissue array, including 90 tissue cores (30 organs) of 3 individual donors per organ (US Biomax, Rockville, Md., USA). Immunostaining was detected using the UltraView Universal DAB Detection Kit (Ventana, USA). Images were acquired and analyzed with NDP.view 2.0 software. […] (Scale bars, 100 μm.) High IL-1RAP (KU812) or negative (Raji)-expressing cell lines were respectively used as positive or negative controls. (B) IL-1RAP R&D (red) or #A3C3 (blue) staining of HMEC-1 dermal endothelial cell line. Isotype IgG1 (gray) is depicted as overlay. RFI is provided for both staining.
In order to study specific or non-target tissue binding, FDA standard frozen tissue arrays, including 90 tissue cores (30 organs) of 3 individual donors per organ (US Biomax, Rockville, United States) were incubated as previously described. Immunostaining was detected using UltraView Universal DAB Detection Kit (Ventana, USA). Images were acquired and analyzed with NDP.view 2 software. High IL-1RAP (KU812) or negative (Raji) expressing cell lines were respectively used as positive or negative controls. The staining intensity was graduated as follows: negative (0), weak staining (1+), moderate staining (2+), or strong staining (3+). […]

IL-1RAP [2] = assay: Hybridoma screening by FACS against IL-1RAP-positive and -negative cell lines; format: binding, human; conditions: compared among the 5 subclones
Text: Briefly, BALB/c mice (5 weeks, Charles River) were immunized either by foot pad (n=3) or intraperitoneally (n=5) with a recombinant fusion protein consisting of the extra cellular part of IL-1RAP (NM_002182.2, NCBI) and the Fc-part of human IgG1 (R&D Systems, Lille, France). Lymph nodes or spleens cells and blood samples were harvested and cells were fused with the mouse myeloma cell line, then screened by FACS analysis Becton Dickinson)(, against IL-1RAP-positive (KU812) and -negative (Raji, KG1) cell lines.
Screening of hybridoma allowed to select 5 monoclonal antibodies subclones that discriminate IL-1RAP positive (KU812 or KG-1 respectively AML or Phi^+p^210 CML) from negative cell lines (Tom-1, NALM-20, Jurkat or Raji, respectively Phi+^p190 B-ALL, Phi^−B-ALL, T-ALL or Burkitt's lymphoma).
Molecular characterization was performed by Sanger sequencing of cloned PCR products amplification obtained with degenerated primers specific of the FR1 and constant regions of the heavy and light chains according to the protocol of Wang. Z. et al (J. Immunol. Methods, 2000; 233, pages 167-77). […] The monoclonal antibody subclone (#E3C3) was chosen, since it gave the highest relative fluorescence intensity (RFI) by cytometry.

IL-1RAP, sequence (Q9NPH3 21-570): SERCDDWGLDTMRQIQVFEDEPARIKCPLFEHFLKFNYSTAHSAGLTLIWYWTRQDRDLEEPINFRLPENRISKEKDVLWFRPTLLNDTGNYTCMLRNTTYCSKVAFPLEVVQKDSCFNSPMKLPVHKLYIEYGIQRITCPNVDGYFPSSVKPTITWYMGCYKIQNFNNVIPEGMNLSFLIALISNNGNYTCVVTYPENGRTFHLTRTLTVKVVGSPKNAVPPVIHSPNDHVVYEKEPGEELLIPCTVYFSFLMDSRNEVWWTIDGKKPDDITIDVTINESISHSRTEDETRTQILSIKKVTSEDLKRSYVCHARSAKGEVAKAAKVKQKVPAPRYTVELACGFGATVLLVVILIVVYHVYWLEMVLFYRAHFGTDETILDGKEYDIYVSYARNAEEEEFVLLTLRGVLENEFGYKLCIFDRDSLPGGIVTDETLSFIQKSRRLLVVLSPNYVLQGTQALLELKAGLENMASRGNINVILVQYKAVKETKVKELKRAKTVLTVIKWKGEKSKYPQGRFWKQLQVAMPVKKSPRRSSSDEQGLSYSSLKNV

B1: #A3C3: mouse anti-hIL-1RAP monoclonal antibody generated by standard hybridoma technique; VH SEQ ID No 2, VL SEQ ID No 4 (antibody, V domains shown)
VH: MGWSCIILFLVATATGVNSQVQLQQPGAELMMPGASVKVSCEASGYTFTDSWMHWVKQRPGQGLEWIGAIDPSDSYTTYNQKFTGKATLSVDESSNTAYMQLSSLTSEDSAVYYCARYYSGSNYISPFPYWGQGTLVTVSA
VL: MESQIQVFVFVFLWLSGVDGDIVMTQSHKFMSTSVGDRVTITCKASLDVSTAVAWYQQKPGQSPKLLIYSASYRYTGVPDRFTGSGSGTDFTFTISSVQAEDLAVYYCQQHYSPPFTFGSGTNLEIK
modifications: Amino acid sequence of chain H (VH) of murine scFv anti-IL-1RAP; Amino acid sequence of chain K (VL) of murine scFv anti-IL-1RAP
- Staining intensity (0 to 3+) (IL-1RAP [1]; Adrenal gland): 0
- Staining intensity (0 to 3+) (IL-1RAP [1]; Cerebellum tissue): 0
- Comments: stained epithelial cells (IL-1RAP [1]; Colon): Epithelial cells (~30%);
- Comments: stained inflammatory elements (IL-1RAP [1]; Colon): (100%)
- Staining intensity (0 to 3+) (IL-1RAP [1]; Colon): 3+
- Staining intensity (0 to 3+) (IL-1RAP [1]; Esophagus): 0
- Staining intensity (0 to 3+) (IL-1RAP [1]; Heart): 0
- Staining intensity (0 to 3+) (IL-1RAP [1]; Kidney): 0
- Staining intensity (0 to 3+) (IL-1RAP [1]; Liver): 0
- Comments: stained elements (IL-1RAP [1]; Lung): Few inflammatory elements
- Staining intensity (0 to 3+) (IL-1RAP [1]; Lung): 2+
- Comments: stained endothelial cells (IL-1RAP [1]; Lymph node): ~30% of endothelial cells
- Staining intensity (0 to 3+) (IL-1RAP [1]; Lymph node): 2+ and 1+
- Staining intensity (0 to 3+) (IL-1RAP [1]; Ovary): 0
- Staining intensity (0 to 3+) (IL-1RAP [1]; Pancreas): 1+
- Staining intensity (0 to 3+) (IL-1RAP [1]; Peripheral nerve): 0
- Staining intensity (0 to 3+) (IL-1RAP [1]; Pituitary gland): 0
- Comments: stained cytotrophoblast cells (IL-1RAP [1]; Placenta): Cytotrophoblast cells (~10%)
- Staining intensity (0 to 3+) (IL-1RAP [1]; Placenta): 0
- Comments: stained endothelial cells (IL-1RAP [1]; Prostate): ~10% of endothelial cells
- Staining intensity (0 to 3+) (IL-1RAP [1]; Prostate): 1+ (2×) and 0 (4×)
- Staining intensity (0 to 3+) (IL-1RAP [1]; Salivary gland): 0
- Comments: stained endothelial cells (IL-1RAP [1]; Skeletal muscle 1): ~10% of endothelial cells
- Staining intensity (0 to 3+) (IL-1RAP [1]; Skeletal muscle, first listing): 1+ and 0 (2×)
- Staining intensity (0 to 3+) (IL-1RAP [1]; Skeletal muscle, second listing): 0
- Staining intensity (0 to 3+) (IL-1RAP [1]; Skin): 0
- Comments: stained epithelial cells (IL-1RAP [1]; Small intestine): Epithelial cells (~30%);
- Comments: stained inflammatory elements (IL-1RAP [1]; Small intestine): (100%)
- Staining intensity (0 to 3+) (IL-1RAP [1]; Small intestine): 2+ and 0 and 1+
- Staining intensity (0 to 3+) (IL-1RAP [1]; Smooth muscle): 0
- Staining intensity (0 to 3+) (IL-1RAP [1]; Spinal cord): 0
- Comments: stained elements (IL-1RAP [1]; Spleen): Necrotic elements
- Staining intensity (0 to 3+) (IL-1RAP [1]; Spleen): 3+
- Comments: stained epithelial cells (IL-1RAP [1]; Stomach 1): cells <10%
- Comments: stained gastric mucosa cells (IL-1RAP [1]; Stomach 1): (~10%); few epithelial
- Staining intensity (0 to 3+) (IL-1RAP [1]; Stomach): 1+ and 0 (2×)
- Staining intensity (0 to 3+) (IL-1RAP [1]; Testis): 0
- Staining intensity (0 to 3+) (IL-1RAP [1]; Thyroid gland): 0
- Staining intensity (0 to 3+) (IL-1RAP [1]; Ureter): 0
- Staining intensity (0 to 3+) (IL-1RAP [1]; Uterine cervix): 0
- relative fluorescence intensity (RFI) by cytometry (IL-1RAP [2]): highest

— patent US20220235138A1, “CAR-T CELLS TARGETING IL-1RAP AND THEIR USE IN ACUTE MYELOID LEUKEMIA (AML)” (ETABLISSEMENT FRANCAIS DU SANG, priority 2019, published 2022)
